Test results from patent US20180021429A1, “ANTICANCER AGENTS OR ANTIMETASTATIC AGENTS USING FSTL1 AND COMBINATION DRUG THEREOF” (PHARMA FOODS INTERNATIONAL CO., LTD., priority 2015, published 2018).

How the values were obtained:
Assay type in all cases: cell-based
[1] = test system: human pancreatic cancer cell line Panc1; assay: Action of anti-FSTL1 antibody under FSTL1 stimulation (Example 26); conditions: Panc1 stimulated with FSTL1 for 3 days; antibody 5 μg/ml
Procedure: (§1) Next, in order to examine how surrounding tumor cells were changed in a cancer microenvironment by receiving FSTL1 produced by Snail/FSTL1-expressing cells, and how the anti-FSTL1 antibody acts thereon, a human pancreatic cancer cell line Panc1 confirmed to express Snail or FSTL1 only slightly was stimulated with FSTL1 for 3 days. The anti-FSTL1 antibody (#6-55, 5 μg/ml) or a control antibody (aHema, 5 μg/ml) was added to this culture system, and subsequent change in cell function was analyzed in the same way as in the preceding paragraph. […] The paper also reports that FSTL1 enhances invasive capacity.

mouse bone marrow cells [2] = assay: Inhibition of induction of MSCs, cancer-associated MSCs and M-MDSCs by FSTL1 in mouse bone marrow cells (Examples 13-15); conditions: Example 15: 20 ng/mL FSTL1; antibody 20.0, 10.0, 5.0 or 2.5 μg/ml; 8 days; FIG. 104A
Procedure: Mouse bone marrow cells prepared in the same way as in Example 4 were supplemented with 20 ng/mL ([…], #7-34, #8-1, or #8-4), an anti-PD-L1 antibody reported to have an immunosuppression-mitigating effect, or a control antibody anti-DNP antibody and cultured under stimulation. 8 days thereafter, the number of cells was counted while the cells were stained with a PE-Cy5-labeled anti-CD45 antibody, a PE-labeled anti-ALCAM antibody, a FITC-labeled anti-CD271 antibody (Abcam plc, Cat. No. AB62122), a FITC-labeled anti-CD11b antibody (BD Pharmingen/Becton, Dickinson and Company, Cat. No. 553310), and a PE-Cy5-labeled anti-Gr1 antibody (eBioscience, Cat. No. 15-5931) in order to detect MSCs (CD45− negative cells), cancer-associated MSCs (CD45-negative, ALCAM-positive, and CD271-positive cells) which are MSCs increasing in number in association with cancer metastasis, and monocytic myeloid-derived suppressor cells (M-MDSCs: CD11b-positive, Gr1-positive, and ALCAM-positive cells) increasing in number together with cancer-associated MSCs, and the contents of the cells mentioned above were analyzed by flow cytometry using FACScan to calculate the percentage and number of MSCs per culture (FIG. 102). […]
The antibody clone (#6-55, #7, #10, #13, or #22) was evaluated for its activity by the same testing method as in Example 13. #6-55 was set as a positive control for activity. […]

mouse bone marrow cells [3] = assay: Ability of FSTL1-induced MSCs to differentiate into adipocytes (Examples 14, 16); conditions: Example 16; antibody 20.0-2.5 μg/ml; FIG. 104B
Procedure: The antibody clone (#6-55, #7, #10, #13, or #22) was evaluated for its activity by the same testing method as in Example 13. #6-55 was set as a positive control for activity. […] Mouse bone marrow cells were supplemented with FSTL1 and the predetermined concentration of each antibody and cultured for 8 days. 5×10^4 cells/well were separated from each culture system and evaluated for the ability to differentiate into adipocytes using an adipocyte differentiation reagent included in “Mesenchymal Stem Cell Functional Identification Kit (R&D Systems, Inc., Cat. No. SC010)”. For the evaluation method, the cells were supplemented with the adipocyte differentiation reagent and cultured for 8 days. Then, adipocytes per culture system were counted under a microscope for evaluation. […]
In the same way as in Example 15, mouse bone marrow cells were supplemented with FSTL1 and the predetermined concentration of each antibody and cultured for 8 days. 5×10^4 cells/well were separated from each culture system and evaluated for the ability to differentiate into adipocytes using an adipocyte differentiation reagent included in “Mesenchymal Stem Cell Functional Identification Kit (R&D Systems, Inc., Cat. No. SC010)”. […] Then, adipocytes per culture system were counted under a microscope for evaluation (FIG. 104B). […]

FSTL1 = target: T1, FSTL1 (Homo sapiens, UniProt Q12841); assay: Action of anti-FSTL1 antibody on Panc1 under FSTL1 stimulation; design: purchased R&D Systems, Inc. 1694-FN-050; conditions: Panc1 stimulated with FSTL1 for 3 days; antibody 5 μg/ml
T1 sequence (Q12841 21-308): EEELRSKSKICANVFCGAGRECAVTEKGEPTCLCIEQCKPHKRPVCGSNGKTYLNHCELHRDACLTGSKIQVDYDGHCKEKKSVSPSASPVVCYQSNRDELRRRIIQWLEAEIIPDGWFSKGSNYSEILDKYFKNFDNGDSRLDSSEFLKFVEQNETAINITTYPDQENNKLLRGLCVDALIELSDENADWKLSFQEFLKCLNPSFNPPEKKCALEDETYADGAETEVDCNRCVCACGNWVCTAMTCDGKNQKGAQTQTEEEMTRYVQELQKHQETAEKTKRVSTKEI
Procedure: as §1

B1: #6-55: chicken-mouse chimeric anti-FSTL1 antibody clone; variable regions SEQ ID NO: 783 (light), 785 (heavy) (antibody, V domains shown)
VH: AVTLDESGGGLQTPGGALSLVCKGSGFTFTSVTMQWVRQAPGKGLEWVASVCSGSSTYYAPAVKGRATISRDNGQSTVRLQLSNLRPEDTGTYYCAKIAGRARWSCTSAAYNIDAWGHGTEVIVSS
VL: ASTQPSSVSAIPGETVKITCSGGGNNYGWYQQRSPGSAPVTVIYYNDNRPSNIPSRFSGSTSGSTSTLTITGVQADDEAIYYCGSWDSNTDSGIFGAGTTLTVL
modifications: mouse constant regions
For B1, the cell growth [1] was “the cell growth was reduced by the addition of the anti-FSTL1 antibody together with FSTL1”, the “invasive capacity enhanced by FSTL1” value [1] was “the action thereof is canceled” and the “inhibitory activity against the induction of MSCs, cancer-associated MSCs, and M-MDSCs by FSTL1” value (mouse bone marrow cells [2]) was “at the same level”. For the same molecule, the “cells differentiating into adipocytes” value (mouse bone marrow cells [3]) was “decreased in number by the addition of #6-55 in a dose-dependent manner”, the cell growth (FSTL1) was “the cell growth was reduced” and the “invasive capacity enhanced by FSTL1” value (FSTL1) was “the action thereof is canceled”.
